Data published in article PMC10173277.
Like-named read-outs stand apart in the source and are kept apart here.

Assays:
[1] = target: collagen type I, bovine tendon, as absorbable collagen sponge (ACS) (bovine) (UniProt P02453); assay: absorption and release from a collagen sponge, protein in the supernatant by micro-BCA; ACS (150 μL) treated with the fragment in PBS for 1 h at room temperature (75 μg; for ColG-FNIII12-14 also 37.5 and 15 μg); release into 150 μL PBS at 37 °C, supernatant taken and PBS refreshed at 36, 60, 120 h
[2] = target: collagen type I, bovine tendon, as absorbable collagen sponge (ACS) (bovine) (UniProt P02453)
[3] = target: collagen type I, bovine tendon, as absorbable collagen sponge (ACS) (bovine) (UniProt P02453); remark: listed apart in the source
[4] = target: ColG-FNIII12-14 treated collagen scaffold (Clostridium histolyticum | not stated | bovine) (UniProt P02453); assay: absorption and release of fluorescent rhBMP-2 from a collagen sponge, fluorescence of the supernatant; Dylight 488 rhBMP-2 (0.1, 0.5, 1, 2 μg/mL) incubated 1 h at 37 °C with ACS with or without ColG-FNIII12-14; release into PBS at 37 °C, supernatant read and PBS refreshed at 36, 60, 120 h

Sequence of UniProt P02453 (P02453 162-1217, chain 1 of 2): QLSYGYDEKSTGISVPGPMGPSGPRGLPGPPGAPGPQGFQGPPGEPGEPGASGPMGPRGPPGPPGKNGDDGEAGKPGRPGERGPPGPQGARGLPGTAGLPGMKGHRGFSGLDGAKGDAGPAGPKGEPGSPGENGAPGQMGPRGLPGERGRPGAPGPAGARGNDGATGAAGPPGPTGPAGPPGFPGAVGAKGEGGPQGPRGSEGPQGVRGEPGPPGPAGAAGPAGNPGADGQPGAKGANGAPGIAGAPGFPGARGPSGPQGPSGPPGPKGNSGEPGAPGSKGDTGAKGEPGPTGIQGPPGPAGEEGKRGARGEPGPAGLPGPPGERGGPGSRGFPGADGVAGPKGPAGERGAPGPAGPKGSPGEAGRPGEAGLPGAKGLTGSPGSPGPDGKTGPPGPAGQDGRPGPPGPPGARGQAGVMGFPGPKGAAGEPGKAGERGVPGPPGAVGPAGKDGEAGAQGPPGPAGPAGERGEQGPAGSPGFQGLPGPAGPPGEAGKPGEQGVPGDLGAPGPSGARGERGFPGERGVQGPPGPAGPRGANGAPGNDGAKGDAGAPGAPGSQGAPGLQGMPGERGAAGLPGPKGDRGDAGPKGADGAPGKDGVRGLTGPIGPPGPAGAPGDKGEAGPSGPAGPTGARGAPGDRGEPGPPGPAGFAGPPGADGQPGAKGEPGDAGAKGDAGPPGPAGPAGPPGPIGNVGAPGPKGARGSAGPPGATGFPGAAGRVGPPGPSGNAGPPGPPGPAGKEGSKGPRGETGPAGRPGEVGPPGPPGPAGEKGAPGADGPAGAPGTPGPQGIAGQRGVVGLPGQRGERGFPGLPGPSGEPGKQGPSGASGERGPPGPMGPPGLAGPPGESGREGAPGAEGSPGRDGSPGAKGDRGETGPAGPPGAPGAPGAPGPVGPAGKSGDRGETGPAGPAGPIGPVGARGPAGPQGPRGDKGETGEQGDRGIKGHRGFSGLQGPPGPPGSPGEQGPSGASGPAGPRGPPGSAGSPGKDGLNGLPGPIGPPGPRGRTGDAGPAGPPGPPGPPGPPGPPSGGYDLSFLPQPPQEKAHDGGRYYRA
Sequence of UniProt P02453 (P02465 80-1117, chain 2 of 2, further chain): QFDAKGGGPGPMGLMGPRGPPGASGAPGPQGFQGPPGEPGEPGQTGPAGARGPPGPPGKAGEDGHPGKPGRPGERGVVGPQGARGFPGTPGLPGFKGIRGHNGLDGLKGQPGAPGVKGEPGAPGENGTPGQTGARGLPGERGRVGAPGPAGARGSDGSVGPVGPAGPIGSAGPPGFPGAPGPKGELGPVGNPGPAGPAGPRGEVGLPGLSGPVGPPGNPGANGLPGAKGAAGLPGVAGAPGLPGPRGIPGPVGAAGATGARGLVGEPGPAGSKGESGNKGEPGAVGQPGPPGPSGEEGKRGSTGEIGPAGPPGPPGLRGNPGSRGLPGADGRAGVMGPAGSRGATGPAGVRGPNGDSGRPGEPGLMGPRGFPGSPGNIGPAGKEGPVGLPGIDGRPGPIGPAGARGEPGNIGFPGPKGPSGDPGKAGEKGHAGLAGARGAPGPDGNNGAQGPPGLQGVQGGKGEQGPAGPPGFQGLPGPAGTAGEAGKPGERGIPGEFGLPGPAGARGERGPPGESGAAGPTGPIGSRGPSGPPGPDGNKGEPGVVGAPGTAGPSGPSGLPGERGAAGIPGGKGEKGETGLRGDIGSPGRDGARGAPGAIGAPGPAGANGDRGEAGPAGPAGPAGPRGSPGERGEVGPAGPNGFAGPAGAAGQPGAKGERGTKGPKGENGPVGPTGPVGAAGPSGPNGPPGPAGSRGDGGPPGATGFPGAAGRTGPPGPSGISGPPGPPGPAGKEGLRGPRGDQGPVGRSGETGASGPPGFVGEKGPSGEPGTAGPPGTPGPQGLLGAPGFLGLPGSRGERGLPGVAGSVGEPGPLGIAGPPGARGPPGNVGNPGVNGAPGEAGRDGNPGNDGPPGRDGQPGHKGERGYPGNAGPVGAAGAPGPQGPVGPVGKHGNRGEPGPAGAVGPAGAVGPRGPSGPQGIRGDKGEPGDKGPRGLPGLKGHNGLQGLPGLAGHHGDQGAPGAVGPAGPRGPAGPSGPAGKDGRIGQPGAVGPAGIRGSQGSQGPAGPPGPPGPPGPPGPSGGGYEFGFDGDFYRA

Molecule: ColG-FNIII12-14 protein fragment
- percent of the absorbed fragment remaining bound after 120 h [1]: 43%

Molecule: ColH-FNIII12-14 protein fragment
- percent of the absorbed fragment remaining bound after 120 h [2]: 10%
- amount of fragment remaining on the ACS after 120 h (pmol per 1 mg of collagen) [3]: 90

Molecule: PLGF-FNIII12-14 protein fragment
- percent of the absorbed fragment remaining bound after 120 h [1]: 10%

B1: recombinant human bone morphogenic protein 2, tagged with Dylight 488 (ligand)
chain: QAKHKQRKRLKSSCKRHPLYVDFSDVGWNDWIVAPPGYHAFYCHGECPFPLADHLNSTNHAIVQTLVNSVNSKIPKACCVPTELSAISMLYLDENEKVVLKNYQDMVVEGCGCR
modifications: Dylight 488 (amino reactive NHS ester dye)
- percent of rhBMP-2 absorbed [4]: 30 to 32%
- percent of the absorbed rhBMP-2 retained after 120 h [4]: 33%
